Results from IntAct's records for PubMed 16648636.

B1: Monothiol glutaredoxin-4 (Saccharomyces cerevisiae), P32642 (parent)
chain: MTVVEIKSQDQFTQLTTTNAANKLIVLYFKAQWADPCKTMSQVLEAVSEKVRQEDVRFLSIDADEHPEISDLFEIAAVPYFVFIQNGTIVKEISAADPKEFVKSLEILSNASASLANNAKGPKSTSDEESSGSSDDEEDETEEEINARLVKLVQAAPVMLFMKGSPSEPKCGFSRQLVGILREHQIRFGFFDILRDENVRQSLKKFSDWPTFPQLYINGEFQGGLDIIKESIEEDPEYFQHALQ
partner: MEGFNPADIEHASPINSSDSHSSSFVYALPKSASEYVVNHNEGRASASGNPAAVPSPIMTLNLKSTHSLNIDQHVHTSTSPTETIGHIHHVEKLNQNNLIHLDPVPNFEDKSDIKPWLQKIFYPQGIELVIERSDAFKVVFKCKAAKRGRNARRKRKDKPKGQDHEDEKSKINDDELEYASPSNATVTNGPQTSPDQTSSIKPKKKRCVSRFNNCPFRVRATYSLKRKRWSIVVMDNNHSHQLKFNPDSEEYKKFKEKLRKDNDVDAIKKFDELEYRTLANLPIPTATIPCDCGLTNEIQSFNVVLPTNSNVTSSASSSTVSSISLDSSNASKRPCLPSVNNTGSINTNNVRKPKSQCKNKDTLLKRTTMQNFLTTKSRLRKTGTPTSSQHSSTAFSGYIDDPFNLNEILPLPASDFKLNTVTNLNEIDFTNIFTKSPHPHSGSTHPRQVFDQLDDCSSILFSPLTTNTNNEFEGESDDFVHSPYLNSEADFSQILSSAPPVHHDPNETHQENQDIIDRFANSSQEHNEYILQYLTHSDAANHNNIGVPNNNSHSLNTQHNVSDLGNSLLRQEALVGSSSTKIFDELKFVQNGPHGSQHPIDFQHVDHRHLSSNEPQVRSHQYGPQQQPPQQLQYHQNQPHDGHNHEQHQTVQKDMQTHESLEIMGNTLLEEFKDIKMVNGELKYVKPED
B2: Monothiol glutaredoxin-3 (Saccharomyces cerevisiae), Q03835 (parent)
chain: MPVIEINDQEQFTYLTTTAAGDKLIVLYFHTSWAEPCKALKQVFEAISNEPSNSNVSFLSIDADENSEISELFEISAVPYFIIIHKGTILKELSGADPKEYVSLLEDCKNSVNSGSSQTHTMENANVNEGSHNDEDDDDEEEEEETEEQINARLTKLVNAAPVMLFMKGSPSEPKCGFSRQLVGILREHQVRFGFFDILRDESVRQNLKKFSEWPTFPQLYINGEFQGGLDIIKESLEEDPDFLQHALQS
partner: B1 partner

Variants of: B1
Conditions: with aft1_yeast AFT1, P22149

Row | effect of a mutation on the interaction | Variant
1 | disrupting interaction | C171S

Variants of: B2
Conditions: with aft1_yeast AFT1, P22149

Row | effect of a mutation on the interaction | Variant
2 | disrupting interaction | C176S
